Laboratory results as given in patent US20020081652A1.

Columns and labels:
mAb 198 [1] = assay: cell-based or functional assay
mAb 198 [2] = assay: competition ELISA: polypeptide preincubated with mAb 198, binding of mAb 198 to coated Torpedo AChR read
mAb 198 [3] = assay: competition ELISA: fragment preincubated with mAb 198, binding of mAb 198 to coated Torpedo AChR read
[4] = molecular target: human muscle-type AChR on TE671 cells (human) (UniProt P02708); assay: cell-based or functional assay

## Hα1-121 fused to glutathione S-transferase (GST) at the N-terminus (from UniProt P02708 21-141) (receptor)
mAb 198 [1]
  protection of TE671 cells against AChR degradation induced by mAb 198 (residual α-BTX binding sites): 100 µg/mL

## Hα1-121+p3A fused to glutathione S-transferase (GST) at the N-terminus (receptor)
mAb 198 [2]
  IC50: 100 nM

## Hα1-210+p3A fused to glutathione S-transferase (GST) at the N-terminus (from UniProt P08515 1-218) (receptor)
mAb 198 [2]
  IC50: 180 nM
mAb 198 [3]
  IC50: 1300 nM

## mAb 198 (antibody)
[4]
  residual AChR on TE671 cells (α-BTX binding sites) after 3 h incubation with 1 µg/ml mAb: 41%
